Results reported in patent US20230266303A1, “SYSTEM” (GTINVENT LIMITED, priority 2020, published 2023).
“Also recorded” adds a separate entry of the source.

How the values were obtained:
Type in all cases: biochemical
[1] = target: T1, dGAE (Homo sapiens, UniProt P10636); experiment: Tau aggregation inhibition assay in vitro, Thioflavin S fluorescence; conditions: 25 μM (1:1) and 100 μM (4:1) dGAE with s1D12
T1 construct: dGAE, corresponding to amino acid residues 297-391 using numbering from 2N4R tau; made in house
T1 sequence (P10636 614-708): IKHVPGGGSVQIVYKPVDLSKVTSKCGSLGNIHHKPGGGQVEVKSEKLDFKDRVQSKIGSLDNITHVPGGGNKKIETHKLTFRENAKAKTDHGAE
Experimental: (§1) dGAE protein was diluted into 10 mM phosphate buffer, pH 7.4 (PB) with monoclonal antibody s1 D12 at a ratio of 4:1 protein:Ab (100 μM dGAE+25 μM s1D12 and 10 μM dGAE+2.5 μM s1D12) or 1:1 (25 μM dGAE+25 μM s1D12).
(§2) As a positive control, dGAE was prepared at a final concentration of 10, 25 or 100 μM in 10 mM PB. Negative controls consisted of dGAE with a non-tau IgG antibody at a ratio of 4:1 (10 μM dGAE+2.5 μM anti-ovalbumin), or antibody alone (25 or 2.5 μM s1D12 and 2.5 μM anti-ovalbumin). Samples were agitated at 700 rpm at 37° C. for 3 days.
(§3) For CD, 60 μL sample was placed in a 0.1 mm quartz cuvette and placed into a JASCO spectropolarimeter. 100 μL ThS in 20 mM MOPS buffer was added to 50 μL of each sample to a final concentration of 20 μM, mixed well, incubated at room temperature for 10 minutes then fluorescence intensity measured in a Cary Eclipse spectrophotometer using an excitation wavelength of 440 nm. Baseline readings from 10 mM PB were subtracted from CD and ThS measurements.

[2] = target: T1, dGAE; experiment: Tau aggregation inhibition assay in vitro, TEM
Experimental: as §1, §2
Transmission electron microscopy (TEM), circular dichroism (CD) and Thioflavin S (ThS) assays were performed as detailed in Al-Hilaly et. al. (2018) J. Mol. Biol. 430, 4119-4131. Briefly, TEM grids were prepared by adding 4 μL of sample to a carbon-coated grid followed by a wash with milli-Q filtered water then staining twice with 2% uranyl acetate. Grids were air dried and then imaged using a JEOL electron microscope operating at 80 kV.

[3] = target: T1, dGAE; experiment: Tau aggregation inhibition assay in vitro, circular dichroism; conditions: 100 μM dGAE + 25 μM s1D12 (4:1)
Experimental: as §1, §2, §3

ThS emission peak at 483 nm of dGAE in presence of antibody [1]: this signal was abolished | ThS emission peak at 483 nm of dGAE in presence of antibody ([1]; listed as s1 D12): abolished | dGAE secondary structure in presence of antibody (CD, antibody spectrum subtracted) ([3]; listed as s1 D12): dGAE has not assembled into fibrils
B1: s1D12: monoclonal antibody binding tau epitope within residues 337 to 349 or 341 to 353 of SEQ ID NO: 1 (antibody)
heavy: QVQLQESGPSLVKPSQTLSLTCTVSGFSLNNNAVGWVRQAPGKVPESLVGCSSDGTCYYNSALKSRLDITRDTSKNQISLSLSSVTTDDAAVYYCTRGHYSIYGYDYLGTIDYWGPGLLVTVSSAKTTAPSVYPLAPVCGDTTGSSVTLGCLVKGYFPEPVTLTWNSGSLSSGVHTFPAVLQSDLYTLSSSVTVTSSTWPSQSITCNVAHPASSTKVDKKIEPRGPTIKPCPPCKCPAPNLLGGPSVFIFPPKIKDVLMISLSPIVTCVVVDVSEDDPDVQISWFVNNVEVHTAQTQTHREDYNSTLRVVSALPIQHQDWMSGKEFKCKVNNKDLPAPIERTISKPKGSVRAPQVYVLPPPEEEMTKKQVTLTCMVTDFMPEDIYVEWTNNGKTELNYKNTEPVLDSDGSYFMYSKLRVEKKNWVERNSYSCSVVHEGLHNHHTTKSFSRTPGK
light: QAVLTQPSSVSGSLGQRVSITCSGSSSNVGGGNSVGWYQHLPGSGLKTIIYDTNSRPSGVPDRFSGSRSGNTATLTINSLQAEDEGDYYCVTGDSTTHDDLVGSGTRLTVLGGQPKSSPSVTLFPPSSEELETNKATLVCTITDFYPGVVTVDWKVDGTPVTQGMETTQPSKQSNNKYMASSYLTLTARAWERHSSYSCQVTHEGHTVEKSLSRADCS
overall effect on assembly of dGAE into fibrils ([2]; collective finding of TEM, CD and ThS experiments): inhibits the assembly of dGAE into fibrils in vitro; also recorded: specifically inhibits the assembly of dGAE into fibrils | fibril formation of dGAE in presence of antibody (TEM) ([2]; dGAE:antibody 4:1 or 1:1 (anti-ovalbumin 4:1, 10 μM dGAE), 700 rpm, 37° C., 3 days): no fibril formation is observed; also recorded: no fibrils were present | dGAE secondary structure in presence of antibody (CD, antibody spectrum subtracted) [3]: dGAE cannot assemble into 3-sheet rich fibrils
